The nature of the data set: soluble fraction after stress (log2 fold change); higher = more stays soluble; pooled small domains, quantitative proteomics. The settings on record: stress: 75 degC.
With “HMPAWKINQELQATVIATKANQTRLRIEGQTFETQTAIALKPGQSLLIKVVSLEPQISFALI”, the “soluble fraction (log2)” value is -2.45. With “HMPDFLAELAARMERDAVTEAQIRQVVAQKGHYPEEVSPAQYHPDFFRQWLFPHWEKIVDVIRSSPEYTP” the figure was -0.126; with “HMPDGTATATASVNVRSGASTLSPVLGVLRVGESIGVTGQANGGWVPVNYNGRAGYVYAAYLSFD”, -0.915. On to “HMPDKIDSAAQGILDKLIRNDGFMAVTDKSPPEAIYKLFGVSKKVFKQAIGSLYKNRLITIEDAGLRIIPQ”, for which the “soluble fraction (log2)” value was -0.481. “HMPDLKIGKDHRLAEYIETKIAEDGYSPGAVLGEIKAKGLEFETEISKPTLYSYIDKGIFLTITNKELPV”: the “soluble fraction (log2)” value worked out at 0.25. As to “HMPDLQKAIDDLLQVVDKRLNTSFESILNEVNSEKEAVAFFLALLEAVRWGFVKASQSDEGIKIEK”, the “soluble fraction (log2)” value was 0.211. As for “HMPDLSAEERNIVEALQKSNDLQVNLIAVKTGMDMGTLSATLFGLEMKGLVKLMAGGTYHLI”, the “soluble fraction (log2)” value is -1.11. Regarding “HMPDLSEDEEKIVSLLRDNNDLNVNIIVMRTQLPSATVTSSLFSLELKGVVRMYAGGMYHLM”, the “soluble fraction (log2)” value is -3.73.

In the case of “HMPDLSYVDEVLNRYKGHKGTLITVLQQVQAHKGYLEKEALERVARSMGVPTARIYGVVTFYAQFR”, the “soluble fraction (log2)” value is 0.138. Consider “HMPDPVHAAYLRLAVLLTEQAIGPQVTEQQIRDRFALTRRQTSDLMGRLIREGIAEKRAGYGWNINTELTA”, for which the “soluble fraction (log2)” value was -1.16. With “HMPDVAIMNVSVEPEKKVVRLQVKAISLEALLDFSTRLEAIPARVELQNHTPSKELSQKWAVNATLIVIY”, the “soluble fraction (log2)” value amounted to 0.482. As for “HMPDYYAILEVERTADAKTIKAAYRKLALAYHPDRNPGDQAAEERFKQINEAYAVLSDPEKRARYDRYGSV”, the “soluble fraction (log2)” value was -0.131. For “HMPEFKDMLKFFRMREHLSQSELAEKLGISASTVSMYEVGRRQPDFETEEKIADFFNTDLNTLRG”, the “soluble fraction (log2)” value was -0.693. To “HMPEGTYLEKLAIENNNLQLIGLSREASQLVQLLQDAPQWRKVNLTGVLQADGAASGRDRFTMTAELQ” belongs 0.0999. As to “HMPEKNQITHLIRLIDDRDEFVRKRVREQLIKLGEDAIPFLEMAAKTENLEIQRIASEIIQAIIPRQ”, the “soluble fraction (log2)” value is -0.745. Regarding “HMPELPPHELLRALMVEHDIKQSELPEVGPQPVVSDVLAGKRALNLRQVAALAARFHVPMEVFT”, the “soluble fraction (log2)” value is -0.161. For the sequence “HMPELSITDADIIVAGGRGMGSAENFGLIRELAGLLGAAVGASRVVVDAEWVDQKHLIGQTGK”, the “soluble fraction (log2)” value was -0.0455.

On to “HMPELTASDEADLKALVGGDQGFEQMANWARSNLGEEEINRFDAVVDSNNKDAIHMAIQAMQARMNA”, for which the “soluble fraction (log2)” value is -0.107. With “HMPELTERELEVLLLTARGLPSSEAARLLFITRRTVAAHLTSIYGKLGARNKTEAVLAALKRGIIMLDQIG” the figure was -3.99.

For the sequence “HMPESYFEMLQKLLETYALPQEGTIYFSAADLARMPQKFEDVIEQTAQKKGGHLVVSKEPKDMDGGFVLV”, the “soluble fraction (log2)” value was -1.83. On to “HMPEVAHTIDMEAVNKHWDELPEREQRILVMRFYGNLTQTEIGERLGISQMHVSRLLARALSHLKSRLLD”, for which the “soluble fraction (log2)” value is -3.89. For “HMPEVYPFEVAEDDAGKRLDVFLSEEIEEFTRSFIQKLIAGGLASVNRAPARASYRVKPRDLVELQVPE”, the “soluble fraction (log2)” value was -0.598. “HMPFNREYWIEQLLKEVGLMGTPYAELDKHEVELDSPTGRASGFKVNAKTYVDQQLLFIENEYNNQPE”: the “soluble fraction (log2)” value was -0.533. For the sequence “HMPFREGDEVFVELVEPHMYNEDDAVAKLDGYVVAVRGAAGLVGQKVLVRIERVGRSSAEATLVA”, the “soluble fraction (log2)” value is -0.0609.

For the sequence “HMPGEIKKIPINSISYQDLKQHPYFDAYLAKQVIKYRETKGRIENIEQFREATRAYQSLIEKVTPYLDFE”, the “soluble fraction (log2)” value is -0.302. For “HMPGGLSAEDVEKMVEKVLTVNGDVVEEIRSGRDPKGKKIKFLAGLVMRDARGQADAAAVSGILERRLKEG”, the “soluble fraction (log2)” value came out at 0.0256. Take “HMPGLITLEAAKTTALNHAKLTADQVTFVKQKLDRDDGRQVYEIEFYTSDYKEYDYEIDAVSGLILEVDYD”: the “soluble fraction (log2)” value was -0.866.

Turning to “HMPGLPLWAFSTRGSAIHTGASFRDGDGLLFGPESRGLPDWLLEEVGQDRVLRLPMRPGSRSLNLSNAV”, the “soluble fraction (log2)” value is -0.577. As for “HMPGPAEMPGWITARAKKLGGQITPEAARALAAEMGSDTEQASREIEKLLTYVDYRRPVEEEDVALLTA”, the “soluble fraction (log2)” value was 0.16.

As to “HMPGRKTTFEERLSIIEDLIKHDVNYSWAVDKYHVSYQQVYGWYQKYRKSGNDPQSLRDRRGK”, the “soluble fraction (log2)” value was -3.65. “HMPGRPSRISDAVKDQIDHDLRKNPRDLGYSQNLWDGKLLSHHLKERYQITLGIRQAQRLFHQLGFRQR”: the “soluble fraction (log2)” value is -0.846. As for “HMPGVLEVDTGGVAAVAYVDGVEVGRVPGELQIAAGTKTLMLKADRYLDYVQSLEIDGLGKRQLLVATLQS”, the “soluble fraction (log2)” value is -0.0797.

As for “HMPGVTTQLHRLNGTEETYIIKRGDGVLEIDGEKSELQLGDAIIIPAGASQKISNIGDEDLE”, the “soluble fraction (log2)” value was -0.159.

“HMPHFFISTSDVNQDIITVSDKENFHHIARVLRSKVGETLLLVDENRTQYKVVIQNIDSKSITTKVVETLK”: the “soluble fraction (log2)” value was -0.925. To “HMPHFGVVLQMDDWKTLRDRLEARDDIDWVMKPNLRFEGQPGEQATLFIRDPSGNALEFKGFADLSQVF” belongs -0.116. “HMPHSTTDFSVSPDERQIVYSTNLQGRYDLWALDHNQGYPYPLTKKGQMSFFIKHLPGSQMILTGFD”: the “soluble fraction (log2)” value was -0.161. Take “HMPIDQAKRKKEIIQNFGIRKIYKFSEIFDLKFGRDNIIVTFLIILDMIKEGVVEINENKEEIEFEYK”: the “soluble fraction (log2)” value is -0.152. Take “HMPIKYTHKGYTINVSRSKMNGTTFVKVVDPKGQVIQQSQDNRIQDVNQLVTTMKQYIDTLKPS”: the “soluble fraction (log2)” value was -0.274. With “HMPILRDEVYLSIKEAILTGELAPGERISIGRLLPQIGFSPTPIREALLKLEQEGFVSRLQRGGFIVSR”, the “soluble fraction (log2)” value was -1.91.

As for “HMPIQLLSEKYMDEHWDELDKDEVSLYQNMSIRFLLKHEDDINWKLYSTNPFISIDTIDFFKDKISWVNI”, the “soluble fraction (log2)” value is -2.34. To “HMPKAKASARNDTRTRLLTIGTEVLSQKGFASTGVEEILSVAGVPKGAFYYYFESKAAFGLAVIENYE” belongs 0.259; to “HMPKAMAIMSEIAGTVHIDDTKKSRHVEVTGVDDNGAPVTKSYLIPFGHRLKVMEGDVLVKGALLT”, -0.0702; to “HMPKHHIESVIPENFAGERLDKVLAVLWGTFSRAQLTRWIRDGSLLLDGHKVKPNTKVDGSEKIVLQAEVA”, -1.27. Take “HMPKNEHETKAIGNQTGGRVFLFLNTDNINRDYNMYISKQVKFVREISQEYYGKVAVFEDLYGNLWDLIE”: the “soluble fraction (log2)” value turned out to be 0.0316. “HMPKNRTDYVQDVLKSLGRPAHYKEITQIINAMLPKEAQYSAKSIQVVLGSSPLFIRVGTGTYALVE”: the “soluble fraction (log2)” value is -1.73.

Take “HMPKNVEVPNVVGLSLPMAKLRLTQLGLHIVVRDSVWSETGQPNTILDQDPQPGKKIKPESTVYVKVN”: the “soluble fraction (log2)” value is -1.48. In the case of “HMPKRYAGPDIIAIYGSDVFFRVGSGDGLMVIPVGRSMDNIEVVSVDAPRSVELMWKDGGPFTVPV”, the “soluble fraction (log2)” value turned out to be 0.145. Turning to “HMPKSKTPDDAAEEFRTAFSALDMDGKVTVKDMAEYMGVIDKTVYARLKKMGDEFTLDKGVITKKT”, the “soluble fraction (log2)” value was -0.104.

Consider “HMPKTATIVIDLNYADAKEIVENLQTILAGETKDISVAPHPSANQIIASGDRWEVENISTIIKQLDR”, for which the “soluble fraction (log2)” value came to 0.26. For “HMPKTLTEAAYEDIKQWILEGEITPGSKISLEDTASRLEVSMTPIREALTKLQQEGLVEYIPRAGWRASK”, the “soluble fraction (log2)” value is -0.0907.

For the origin of these results see the domain aggregation screens of Martell et al. (2025).
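Also: 20 min heating vs room temperature control held 20 min.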
